Experimental data as given in the DeepSol protein solubility set.

Test: soluble on expression in E. coli; label from the status in PepcDB or PDB records

| Sequence | soluble on expression in E. coli |
| --- | --- |
| DPTKNLRSVDLAVVNEDEGATRNGEFNRYGDKVVKGLLDKDYLAFKQVSADEAAKGLDNGTYLFTVTIPEKFSENVNTLLADQPTKPEIILSYNDFNGTNGSVLTGGLVPKIQQAVSASISESYATKLVNGVNKLGGGLERAADGSAKLEEGSGKLKDGLAKGVAGSQKLNDGSHQLAEGTAKLADGTGQLADGASRLAAGTAKLGNGAAQIDDGVGTLVNTLIPVLTTAQAAAPQLQQAADALRAVGMVAEADRIQDLATKFDANNPDNQVNKLNKLKNGTATLRYMLSDPSSEYYGGVLKLSDGVAKAHDGAVRLNDGAHRLADGTAQLANGTQQLYDGAGRLNEGANTLATKLDEGAKNAPKVPNAEASAKQISVPIVYKENNANPVQTVVDSNDPTAKKLNGGAS | not soluble |
| MGSDKIHHHHHHMECTSYLVDTFDQLPPINEESLADIDNDLFSGLYYGGVDTPTTRQLSQRVADLEKGKFAVLTPSGQSAFNLLLTTFVKPGDHVLAGDTIVYSTRWLLNHFENIGVKIEYFTPSEAATLKNKLTLKTKLIIFENPGAFTYEVMDISAIVESRHDHPALIVADNTWAASLFHHPLSLGADISLISMSKYHGAVEGISLGALITKRKDLYVNLKTTSALTGNHVSSHACSAAIRSISTLGARLSFQMSTTRKVLRSLKPLPLLKQAIHPILQNTELHLQNSMIYGFNSLFTAEFSCSRNELISRLNRLNLIKIGYGWGGTTSLVNLIDTHDMPSAKRLGINSECARIYLGLEDPDELTRDLTNAFTQ | not soluble |
| MGSDKIHHHHHHMEKKFNLENYLSYGVQNIVKGIIKSTLSNPKESLFMAKYSIASKNAIKLRAEADKIGEHVPPFLIASITSKCNLHCKGCYARHVNSCTDEKTVNQLTDEDWRRVFYEAKDIGVGFILLLGGEPLMRPNVIKIAGEIEDILFPIFTNGTMIDEKYIKLFQKYRNLIPIFSIEGNESNTDKRRGTGIYSEIIKKMNEAYENKIIYGASITVTKENIEEVTSEKFLDKLYSRGCKSVIYVEYVPVSEKEKKIALEGKEREFLKDKLVELRYKYEDILFISFPGDEKSSGGCLAAGRGFFHINFNGGVEPCPFSPYSDTNLKDLSLKEAMNSPLFRKLRKDNVLMEEHSGGCVLFEKEDIVQSLLQK | not soluble |
| MLAVSGLARSTFFDHQRRLDKPDKYADLKEQITTIFHDSNATFGYRRIWRALRNNNTIVNKKVVQRLMREQGLVSKIRRKKYNSYRGTVSHIADNVLGRRFIQDAPNKVWVSDVTEFRVAGTKVYLSPVMDLFDRTILAHTLSTSPNTQLTSRSLADAIAMFSPGKGLIVHTDQGFQYQHASWRTLIKSVGGVQSMSRKGNCYDNAVMENFFGHLKSEMYYGASFTSVDELCQAIDEYILWYNTYRLQERFKGLAPMQYRNQTLAKTLTV | not soluble |
| MGSDKIHHHHHHMSSHHETSENVVIKQADFIESVADALQYISYYHPKDFVDAMSEAYEREQSAAAKDAIAQILINSRMSAEGKRPLCQDTGIVTTFVKVGMGVKWDKTDMTIQQMVDEGVRRAYTNPDNPLRASIVADPAGSRKNTKDNTPSVVHIDMVPGNHVEVAIAAKGGGSENKAKMVMLNPSDDIAAWVEKTLPTMGAGWCPPGMLGIGIGGTAEKAAVLAKEALMESVDIHELMARGAQTTEEKLRLDIFERANNLGIGAQGLGGLTTVLDVKIKSAPTHAASKPVVMIPNCAATRHVHFHLDGTGPADLAPPSLSDWPEITREVGSDVRRVNLDTVTQADIEQWQSGETLLLSGKMLTGRDAAHKRIQSLIESGEGLPEGVDFTGKFIYYVGPVDPVGNEVVGPAGPTTATRMDKFTDLMLDKTGLMGMIGKAERGPATVESIKKHKAVYLMAVGGAAYLVSKAIKKSRVVAFADLGMEAIYEFDVQDMPVTVAVDSNGVNAHETGPAIWKVNIANANAKA | not soluble |
| MKKEQVEKRTYLAVDIGASSGRIMKSQRLANGQITIEEIHRFKNGFHQKDGYQRWDMASLVHELLLGLQKVKQLGIKECFIGIDTWGVDYCLLDQSGQLLDEPIAYRDGRTEAAVTNFSKGYSLEKLYQQTGIQVQPFNTIFQLFVEEKERLAAASQLLLIPDYLGYVFTGKAVIEATNASTTQLLNAGTKQWESELLDFLGIDETLFPTLVEPGTILGDLQTAAFPDYDLPNATLITIASHDTASAILGTPGIGDDWAYISSGTWSLLGIETTVTTISAEAFQENYTNEWGAQNTIRFLKNIMGMWLIQEVARHQNYQYSYAELAALAEKEPAFQQFIDVNDPRFLNPGNMITELQAYCRETQQTVPESPGELARCIYDNLALCYSVELEKLAQLTGIERKITTLHVVGGGSNNRLLNQLTADVANVTVNAGPGEAIALGNLLMQMIATGELKDIPAARTCIQTSFPTEIYQANPIDSTIKNRYQAFMKRSSL | not soluble |
| LSKGTRDRKNIYVSPEEMARQQRFIDEIKELNYRKEVKTGKKKLYCLNTFGCQMNEHDSEKLAGMLAEMGYAETDNVNESDLVIYNTCCVRENAELKVYGHLGMLKPLKNQKPDLVIAVCGCMMQQPEVVEHIKKTYSHVDLIFGTHNLYKFPELLYSAMDSQTTVVDVWDCDGQIAENVAIERKDGVKAWVTVMYGCNNFCTYCIVPYVRGRERSRSMDDILEEVRMLGRQGFKEITLLGQNVNSYGKDIGDGTSFAELIREVNKIPGIERIRFTTSHPKDLSDDLIYAMRDCEKVCEHLHLPFQAGSTRILKLMNRKYTKEDYINLVAKIKENIPDIALTTDIIVGFPGETEEDFSDTLDILEKVRFDNAYTFLYSKRTGTPAAKMEDQVPEEVKKERFQRLLETQNRISKEINDTFLGKVVEVLVEGVSKTNDKIFTGRTRGNKVVNFEADASLIGKLVNVRINTVKTWSLEGSIVR | soluble |
| MGSDKIHHHHHHMSNIKVLIQASSRSWAGGRDICMGLVNGEITVARTIKRALEAFPAAQLCLVAPEFDQDGELGGVIEYVKDKRLKAFYGFDESPLKRMIAASIELADNDYIVRIDGIHFCFDVDLSQKMLALALQKKLDCIKLPADFPVHFSSEVFRVGALRELVKLLDKPELEKFNIHPKIYFELNRYNYNFEYLRTLPQYSDEYLSECRKLAKDIYDIPRLEVGSKRTIWADTPSYHYQLALEYLNSNMKVLDIACGNGYGVRMMSTFLAEVHGADLDPEIINLAKAYTHEKNVEYYIEDITNLSFEDDSYDAVTCFETLEHIPEDDCLKELRRIIRPGGMLVLSTPQNSYGHIPVNACHIVEYSLDALLKLVGRYFLVVKVIGIKAGTIHSDADPYGTNTVLVCIKPF | not soluble |
| MIPIERHQKILALVAERGVVSIAELTERLGVSHMTIRRDVQKLEEQGAVLSVSGGVRSTQRLAIEPSHQDKTMMFSRQKQAIGTSAALHIPRNSCIYLDAGTTTLALARQLEDRDDLLVVTNDFVIANFLIESSQCRMIHSGGTLCRKNRSCIGEAAAHSLRNLSIDIAFISASCWGLRGISTPDEDKVPVKRAISEASSKRVLLADASKYGKVATYLALPLTAFDVVITDNSLSSTVYEELAEKALELIIASPPR | not soluble |
| MKTKSPALSGKLTDTELRTLRIFMAVVHYSGFTPAALELNVSRSAVSIAMADLEKRLSLRLCERGRAGFSLTTEGREVYRSTRQLFSALDQFRIQINAIHFNLKGELNIGITDNLVTMPQMRITSALRELNRLGPDVQINIQMIPPNEIISGVLDGQLHTGVIPVQKHYEGLEYLLLYEERSSLYCGQEHELFCRHDSELSPSMLKQYNGVLPAYDQTSEIKALHHELQLSASATDREGVAFLILTGRYIGYLPDHYAHRWVKEGVMRAILPANMSYLTPFATITKKGAPSNLVLENYLEQLKLASTTAGG | not soluble |
| MNKGQRHIKIREIITSNEIETQDELVDMLKQDGYKVTQATVSRDIKELHLVKVPTNNGSYKYSLPADQRFNPLSKLKRALMDAFVKIDSASHMIVLKTMPGNAQAIGALMDNLDWDEMMGTICGDDTILIICRTPEDTEGVKNRLLELL | soluble |
| MKRESVLFQAARKHHLNLLFPLFRANTSASYPVSRFISRPITVLSKGFAKGFFCIKKETVDKIQQFFFDKWAIEERRYHQLLSILLPGLKNGNLASVEQYLGAKRIEAYAAVPYVAGRWELDDASLPQGAVVVLTCEGVLYSWETYRLERYISAAMANDRISGVVLFVNGPGGMITRVDVLEKLIRQSPKPIVAYITGVCASAHFWFVSACARRFVSSPMDEIGSCGVVYTFQSFKEYYAQMGIEIEDIYPDSADLKNRAYRDKEEKQDDTLIKENLSFYHHLFAQTIARNLGVKYDAQDPLFRGQTFFADTALAKGYVDAYGSLEDAILWVSAQKTVKRANKMILEHHHHHH | not soluble |
| MAPSAAVGNYGEVIDYLQRHIRREMERQDVPGLALALVDDQQLVWARGFGYADRQHRINASEHTAFHAGDLSKLLIASATLQLAERGQLSLDAPLQDTLREFYVRSRFHADQSEADRAITFRRLLSHQSGLPGEHLPPLFGERPNSLGQLPAKVSGVWLSNPPGTQVAHSNLGYELVGAAIERNTGKHFEQHMREHLLDPLQMTRSSFARNALPQAQRAHGYSGGGRPGSASDLPVNDLWSSPVDLSRFVRMLFANGRHKERQLLRKHSVEEMFRQQNAGNALDFDCQVGLAWFLSPCGSAPLEGGIRHYEYASATPGFSAHLILLPEQRLAAIVMSNADDSGSLTASLARQAASLMLQVKQGARRPAVQLEHHHHHH | not soluble |
| SNAMLKREMNIADYDAELWQAMEQEKVRQEEHIELIASENYTSPRVMQAQGSQLTNKYAEGYPGKRYYGGCEYVDVVEQLAIDRAKELFGADYANVQPHSGSQANFAVYTALLQPGDTVLGMNLAQGGHLTHGSPVNFSGKLYNIVPYGIDESGKIDYDEMAKLAKEHKPKMIIGGFSAYSGVVDWAKMREIADSIGAYLFVDMAHVAGLIAAGVYPNPVPHAHVVTTTTHKTLAGPRGGLILAKGGDEELYKKLNSAVFPSAQGGPLMHVIAGKAVALKEAMEPEFKVYQQQVAKNAKAMVEVFLNRGYKVVSGGTENHLFLLDLVDKNLTGKEADAALGRANITVNKNSVPNDPKSPFVTSGIRIGSPAVTRRGFKEAEVKELAGWMCDVLDNINDEATIERVKAKVLDICARFPVYA | soluble |
| MNNSSFFGNRLKEERKKLKMTQAEIAEKCGVSGRMWGDYERGISQPKAELFFQFEKVGIDVQYVMHGRRGETAVMPSETLNAEEQELLVLFREAAAADREMILMVARRAEKKAQTALGKVSNG | not soluble |
| MGSDKIHHHHHHMQATMTDKNTRELLLDAATTLFAEQGIAATTMAEIAASVGVNPAMIHYYFKTRDSLLDTIIEERIGRIIDMIWEPVTGEEDDPLIMVRDLVNRIVNTCETMLWLPSLWIREIVNEGGALREKMLNNIPIDKMNKFSAKIAEGQKQGVINSGIDSRLLIGSIIGLTMLPLATAKLRDQIPTMKGLSSEDIVCHVTALLFTGLTNPSNSDDIKKQRT | not soluble |
| MGLGRQSLNIMTFSGQELTAIIKMAKSMVMADGKIKPAEIAVMTREFMRFGILQDQVDLLLKASDSIEASQAVALIARMDEERKKYVASYLGVIMASDGDIDDNELALWTLISTLCGLPTMTVMEAINNMKNL | soluble |
| MGSDKIHHHHHHMQIAVSGGKGGTGKSTVAINLAVELAKKFKLVLADLDVEAPNDHLLLGVELQNEREVHQFMPKFNYSKCIKCRKCAEACEEHAIVTLRDGTPFLMPTLCSGCRACEIVCPVPGAIEEGSRLIGHTYETLTPYGFTLVTGKLREGEERSMPLVVAAKRRAKELKWDLLIVDTAAGTGNTVSKAIEGSQLLIAVTEPTPLGIHDTELILKLGELMRIETWIVINRSDLGDVKEVYRRAKKYNAEVIAEIPYSENIVKTYVAGKPIVTTDYPEAGIFREIAEKVYEFLR | not soluble |
| EPPADGGQIKGVGSGRCLDVPDASTSDGTQLQLWDCHSGTNQQWAATDAGELRVYGDKCLDAAGTSNGSKVQIYSCWGGDNQKWRLNSDGSVVGVQSGLCLDAVGNGTANGTLIQLYTCSNGSNQRWTRT | soluble |
